Experiment: soluble on expression in E. coli; label from the status in PepcDB or PDB records

| Sequence | soluble on expression in E. coli |
| --- | --- |
| MESTIEGEDENYVKVYITDNLDSEHELTIDKNSGDIPYHQCDAYADDANRRTSEENEYNNQARRYAKYYVFAQRGYDTVEHIENPAYVDAVRRAIADLSPAEFKRYFGALYRQLRSHHDDTERPRELPSGVRKPDAVVYEPEIYLGLEAVGEDVAERAQALATAHGFDLEESAEVQPVSELSDETLSRWKAFGDDLAAIVTREDLTTNLTITGVSGLHIGYPNRLGKHEVDEADSPFTHQADARLSLLPYAPESFDEFPAYLDHHLRCQVRDCFLKMGVVPPEEFHVVGFGKFRDSRRYDHFEMYPEVHKRDGNHTPLLG | not soluble |
| YTDKYDKINLQEILENKRLLESYMDCVLGKGKCTPEGKELKDHLQEALETGCEKCTEAQEKGAETSIDYLIKNELEIWKELTAHFDPDGKWRKKYEDRAKAKGIVIPE | soluble |
| MGSDKIHHHHHHMLLILDEYFKEHPIKLRIVDGLYTSGISIRNGRFFTNDVEISVSEIASAFNVNRKTVYETIKLVESNDSLRRVMSSIKPMADIADVALLTGNQIITAYTTLGHFPYVFKEIFNTISKYGCYIREVFSRNMSQEESFIRIIFYRPIPDRIIGQIRKIDGVKSLEVRVNMDTDQILCNNCDIKICPTKYISDVEKEELGDL | not soluble |
| MHHHHHHSSGVDLGTENLYFQSNAMKKEIASHLLEIGAVFLQPNDPFTWSSGMKSPIYCDNRLTLSYPKVRQTIAAGLEELIKEHFPTVEVIAGTATAGIAHAAWVSDRMDLPMCYVRSKAKGHGKGNQIEGKAEKGQKVVVVEDLISTGGSAITCVEALREAGCEVLGIVSIFTYELEAGKEKLEAANVASYSLSDYSALTEVAAEKGIIGQAETKKLQEWRKNPADEAWITA | soluble |
| MSLTVIRKQDVISSVADALQYISYYHPLDFVKALEKAYQREESQAAKDSIAQILINSRMSAEGHRPICQDTGIVTCFVNIGMGVQWDSTDMTVQQMVDEGVRQAYTNPDNPLRASVLMDPAGKRINTKDNTPAVVHINMVPGDKVDIQIAAKGGGSENKTKMVMLNPSDDIAEWVEKTVPLMGAGWCPPGMLGIGIGGTAEKAAVLAKEALMEHIDIHELIERGPQNAEEELRLDIFNRVNKLGIGAQGLGGLTTVVDVKIKSAPTHAASKPVCMIPNCAATRHVHFTLDGSGPAQLTPPKLEDWPQITWEAGANTRRVNLDNITREEIQTWKTGETVLLSGKILTGRDAAHKRIQTMLQKGEKLPDSVDLKDKFIYYVGPVDAVGDEVVGPAGPTTSTRMDKFTDMMLEEVGVMGMIGKAERGPATVESIKKHKAVYLMAVGGAAYLVAKAIKKARVVAFEDLGMEAIYEFEVEDMPVTVAVDSTGANAHQIGPDTWRVKIAEAAKEGGSHHHHHH | soluble |
| MAALFQEASSCPVCSDYLEKPMSLECGCTVCLKCINSLQKEPHGEDLLCCCCSMVSQRNKIRPNRQLERLVSHIKELEPKMKKILQMNPRMRKFQVDMTLDADTANNFLLISDDLRSVRSGLITQNRQDLAERFDVSVCILGSPRFTCGRHYWEVDVGTSTEWDLGVCRESVHCKGKIQLTTELGFWTVSLRDGSRLSASTVPLTFLLVDRKLQRVGIFLDMGMQNVSFFDAESGSHVYTFRSVSAEEPLRPFLAPSIPPNGDQGVLSICPLMNSGTTDAPVRPGEAK | soluble |
| MLLYMRFTENFERAKKEALMSLEIALRKGEVDEDIIPLLKKINSIENYFTTSSCSGRISVMEMPHFGDKVNAKWLGKWHREVSLYEVLEAIKKHRSGQLWFLVRSPILHVGAKTLEDAVKLVNLAVSCGFKYSNIKSISNKKLIVEIRSTERMDVLLGENGEIFVGEEYLNKIVEIANDQMRRFKEKLKRLESKINALNR | soluble |
| ANAFLEELRPGSLERECKEEQCSFEEAREIFKDAERTKLFWISYSDGDQCASSPCQNGGSCKDQLQSYICFCLPAFEGRNCETHKDDQLICVNENGGCEQYCSDHTGTKRSCRCHEGYSLLADGVSCTPTVEYPCGKIPILEKRNASKPQGR | soluble |
| MKQQDNPLIEQFLDALWLERNLAENTLASYRLDLHALVGWLTHHNSDLLRASPQDLQSFLAERIEGGYKATSSARLLSAMRRLFQYLYREKLREDDPTALLSSPKLPQRLPKDLSEAQVDALLNSPNVDIPLELRDKAMLEVLYATGLRVSELVGLTISDVSLRQGVVRVIGKGNKERLVPLGEEAVYWIENYMEHGRPWLVNGASLDVLFPSNRSQQMTRQTFWHRIKHYAILAGIDSERLSPHVLRHAFATHLLNHGADLRVVQMLLGHSDLSTTQIYTHVATERLRQLHQQHHPRA | not soluble |

Source: the DeepSol protein solubility set
